Source: paper PMC11242946 (Molecules, 2024)

Molecular target: T1, human ACE2 protein (human, UniProt Q9BYF1 18-740)
T1 construct: No catalogue number is printed; also called angiotensin-converting enzyme-2
Test: adsorption isotherm on protein-coupled resin (depletion, micro-BCA)
Conditions: both partners purified

T1 sequence (Q9BYF1 18-740): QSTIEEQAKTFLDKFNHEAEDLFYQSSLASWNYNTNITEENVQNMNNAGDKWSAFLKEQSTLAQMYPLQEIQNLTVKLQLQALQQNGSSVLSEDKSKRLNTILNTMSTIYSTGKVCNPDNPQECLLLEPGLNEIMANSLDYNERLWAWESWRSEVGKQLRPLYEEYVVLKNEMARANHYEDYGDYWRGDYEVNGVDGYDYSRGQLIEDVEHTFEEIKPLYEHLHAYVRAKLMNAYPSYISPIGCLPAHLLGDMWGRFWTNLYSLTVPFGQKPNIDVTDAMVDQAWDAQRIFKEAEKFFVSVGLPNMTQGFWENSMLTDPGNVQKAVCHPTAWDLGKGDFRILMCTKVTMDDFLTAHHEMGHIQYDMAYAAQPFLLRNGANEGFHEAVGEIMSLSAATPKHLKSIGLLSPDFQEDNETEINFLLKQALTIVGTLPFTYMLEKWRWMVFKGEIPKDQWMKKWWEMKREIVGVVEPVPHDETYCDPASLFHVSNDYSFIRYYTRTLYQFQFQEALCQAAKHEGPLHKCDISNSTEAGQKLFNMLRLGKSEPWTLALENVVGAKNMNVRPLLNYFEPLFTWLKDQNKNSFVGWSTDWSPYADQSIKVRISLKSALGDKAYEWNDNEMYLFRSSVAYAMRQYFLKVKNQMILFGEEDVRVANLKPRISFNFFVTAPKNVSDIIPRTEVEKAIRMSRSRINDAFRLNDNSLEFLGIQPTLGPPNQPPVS

B1: functional peptide KYPAY (K5) (peptide)
peptide: KYPAY
- Kd: 12.5 µM
